The text below walks through data of patent publication US20230051715A1 (MABWELL THERAPEUTICS, published 2023).

Assay [1] deals with T1, human C1s deletion mutant 1 (M151) (human) (UniProt P09871).
T1 sequence: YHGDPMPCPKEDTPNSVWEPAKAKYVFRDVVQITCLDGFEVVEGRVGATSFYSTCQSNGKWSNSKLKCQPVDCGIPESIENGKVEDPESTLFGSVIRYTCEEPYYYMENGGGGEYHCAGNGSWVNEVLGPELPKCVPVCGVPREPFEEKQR
Briefly: ELISA, plate coated with 200 ng/well HuC1s(M151), OD450nm.

In assay [2] the target is T2, full-length mouse C1s (produced in house) (mouse, UniProt Q8CG14 16-688).
T2 construct: Called full-length; also called MoC1s; moC1s
T2 sequence: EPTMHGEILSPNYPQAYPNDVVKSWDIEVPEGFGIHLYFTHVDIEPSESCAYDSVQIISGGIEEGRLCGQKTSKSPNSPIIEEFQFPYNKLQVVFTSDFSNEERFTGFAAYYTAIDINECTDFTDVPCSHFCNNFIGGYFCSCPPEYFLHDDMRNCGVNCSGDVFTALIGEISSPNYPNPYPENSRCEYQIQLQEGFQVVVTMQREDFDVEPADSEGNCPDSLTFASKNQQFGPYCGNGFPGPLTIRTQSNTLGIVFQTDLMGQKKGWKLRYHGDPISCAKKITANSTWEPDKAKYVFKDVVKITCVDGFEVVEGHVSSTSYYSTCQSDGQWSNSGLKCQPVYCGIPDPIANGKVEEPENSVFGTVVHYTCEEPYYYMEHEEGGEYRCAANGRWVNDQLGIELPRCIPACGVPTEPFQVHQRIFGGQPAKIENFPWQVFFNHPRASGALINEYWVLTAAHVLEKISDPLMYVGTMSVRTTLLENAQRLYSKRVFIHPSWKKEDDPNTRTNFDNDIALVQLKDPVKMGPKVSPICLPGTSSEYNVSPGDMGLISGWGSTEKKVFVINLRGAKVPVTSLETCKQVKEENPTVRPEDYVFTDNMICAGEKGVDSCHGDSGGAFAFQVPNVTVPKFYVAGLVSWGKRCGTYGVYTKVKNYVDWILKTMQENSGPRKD
Briefly: ELISA, plate coated with 200 ng/well MoC1s, OD450nm. Here is the method: The next morning, plates were blocked with SuperBlock T20 blocking buffer (Thermo Scientific 37536) for 1 h with gentle shaking. Then, various concentrations of anti-C1s antibodies diluted in SuperBlock T20 blocking buffer were added to the plates and incubated for 1 h with gentle shaking. Mouse IgG (Sigma-Aldrich I5381) and Human IgG1 (BioXCell BP0297) were used as negative controls. The plates were washed before incubating with HRP conjugated secondary antibodies diluted in SuperBlock T20 blocking buffer (goat anti-mouse IgG (H+L) cross-adsorbed secondary antibody HRP (Invitrogen G-21040) or goat anti-human IgG antibody, HRP conjugate (Millipore AP309P)) for 1 h with gentle shaking. At last, the plates were washed and color developed with ELISA liquid substrate (Sigma-Aldrich), followed by stopping the reaction with addition of the same volume of […] 1M H₂SO₄. Bound antibody was measured by absorbance at OD₄₅₀ₙₘ.

Assay [3] addresses T3, human C1s mutant M11 (S349P) (human, UniProt P09871 16-688).
T3 construct: The entry is the mutant itself
T3 sequence: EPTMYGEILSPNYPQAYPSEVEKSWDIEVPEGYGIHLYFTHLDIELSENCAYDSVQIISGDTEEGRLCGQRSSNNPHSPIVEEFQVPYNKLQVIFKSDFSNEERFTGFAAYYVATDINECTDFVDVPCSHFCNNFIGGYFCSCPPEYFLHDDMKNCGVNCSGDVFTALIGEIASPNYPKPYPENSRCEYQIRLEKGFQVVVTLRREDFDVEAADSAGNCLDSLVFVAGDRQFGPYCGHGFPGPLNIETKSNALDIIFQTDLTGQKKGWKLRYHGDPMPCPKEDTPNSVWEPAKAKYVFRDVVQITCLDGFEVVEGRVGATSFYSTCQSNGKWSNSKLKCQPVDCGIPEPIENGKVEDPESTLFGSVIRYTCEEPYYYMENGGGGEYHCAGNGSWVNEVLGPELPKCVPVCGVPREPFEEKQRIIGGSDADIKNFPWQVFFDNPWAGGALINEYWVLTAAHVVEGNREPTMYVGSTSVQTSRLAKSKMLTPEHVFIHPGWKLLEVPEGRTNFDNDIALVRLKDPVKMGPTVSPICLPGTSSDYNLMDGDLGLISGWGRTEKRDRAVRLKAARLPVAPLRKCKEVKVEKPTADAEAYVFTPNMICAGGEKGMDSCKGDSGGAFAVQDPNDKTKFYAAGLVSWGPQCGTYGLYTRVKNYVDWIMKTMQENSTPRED
Briefly: ELISA, plate coated with human C1s mutant M11: S349P, OD450nm. Here is the method: ELISA was carried out by first coating 96-well plates with 200 ng/well of full-length or truncated C1s proteins overnight. The next morning, plates were blocked with SuperBlock T20 blocking buffer (Thermo Scientific 37536) for 1 h with gentle shaking. Then, various concentrations of anti-C1s antibodies diluted in SuperBlock T20 blocking buffer were added to the plates and incubated for 1 h with gentle shaking. Mouse IgG (Sigma-Aldrich 15381) and human IgG1 (BioXCell BP0297) were used as negative controls. The plates were washed before incubating with HRP conjugated secondary antibodies diluted in SuperBlock T20 blocking buffer (goat anti-mouse IgG (H+L) cross-adsorbed secondary antibody HRP (Invitrogen G-21040) or goat anti-human IgG antibody, HRP conjugate (Millipore AP309P)) for 1 h with gentle shaking. At last, the plates were washed and color developed with ELISA liquid HRP substrate (Sigma-Aldrich), followed by stopping the reaction with addition of 1M H₂SO₄ in the same volume as the ELISA liquid substrate. Bound antibody was measured by absorbance at OD₄₅₀ₙₘ.
Binding of anti-C1s antibodies to mutants M1-M20 of human C1s was measured by ELISA as described in Example 4, and results are shown in FIGS. 6B-6U. All anti-C1s humanized variants including hz2-7(H1L2), hz2-8(H1L2 G80A) and hz2-8(H1L2 G80A/T82A) maintained strong binding properties to the majority (16 out of 20) of C1s mutants including M1 (FIG. 6B), M2 (FIG. 6C), M3 (FIG. 6D). M4 (FIG. 6E), M7 (FIG. 6H), M8 (FIG. 6I), M10 (FIG. 6K), M11 (FIG. 6L), M12 (FIG. 6M), M13 (FIG. 6N), M15 (FIG. 6P), M16 (FIG. 6Q), M17 (FIG. 6R), M18 (FIG. 6S), M19 (FIG. 6T) and M20 (FIG. 6U).

B1: Anti-C1s antibody 2-7 (antibody, human IgG1, kappa, V domains shown)
VH: EVKLEESGGGLVPPGGSMKLSCVASGFTFSNYFMNWVRQSPEKGLEWVAEIRLKFTNYATHYAESVEGRFTISRDDSKSSVYLQMNNLRAEDTGIYYCTRDYGSRNGYFDYWGQGTTLTVSS
VL: DIVMTQAAPSVPVTPGESVSISCRSSKSLLHSNGNTFLYWFLQRPGQSPQLLIYRMSNLASGVPDRFSGSGSGTAFTLRVSRVEAEDVGIYYCMQHLEYPYTFGGGTKLEIKT
notes: the HC/LC entries may hold it too; also called clone 2-7
B1 displayed an EC50 in assay [1] of 13 ng/mL. For the same molecule, the binding result in assay [2] is on record as “no binding (tested: 1000 ng/ml (Log 3))”.

B2: Anti-C1s antibody 2-8 (antibody, V domains shown)
VH: EVQLQQSGAELVRPGALVKLSCKASGFNIKEYYMHWVKQRPEQGLEWIGWIDPENGDTIYDPKFQGKASITADTSSNTAYLQLSSLTSEDTAVYYCARSRLFFAYWGQGTLVTVSA
VL: DIVMTQSHKFMSTSVGDRVSFTCKASQDVRTAVDWYQQKPGQSPKLLIYSASYRYTGVPDRFTGTGSGTDFTFTISSVQAEDLAVYFCQQQYTTPYTFGGGTKLEIKT
notes: the HC/LC entries may hold it too; also called clone 2-8
In assay [1], B2 registered an EC50 of 18 ng/mL. Also, in assay [2], the binding result was “no binding (tested: 1000 ng/ml (Log 3))”.

B3: Anti-C1s antibody hz2-7(H1L2) (antibody, V domains shown)
VH: EVQLLESGGGLVQPGGSLRLSCAASGFTFSNYFMNWVRQAPGKGLEWVSEIRLKFTNYATHYADSVKGRFTISRDDSKSTLYLQMNSLRAEDTAVYYCTRDYGSRNGYFDYWGQGTLVTVSS
VL: DIVMTQTPLSLPVTPGEPASISCRSSKSLLHSNGNTFLYWFLQKPGQSPQLLIYRMSNLASGVPDRFSGSGSGTDFTLKISRVEAEDVGVYYCMQHLEYPYTFGGGTKLEIKR
notes: Humanized, human IgG1 / kappa; also called hz2-7(1L2)
Turning to B3, the EC50 in assay [1] amounted to 8 ng/mL; in assay [3], 5 ng/mL. In addition, in assay [2], the binding result was “no binding (tested: 1000 ng/ml (Log 3))”.

B4: Anti-C1s antibody hz2-8 (H1L2 G80A) (antibody, V domains shown)
VH: QVQLVQSGAEVKKPGASVKVSCKASGFNIKEYYMHWVRQAPEQGLEWMGWIDPENADTIYAQKFQGRVTITADTSTNTAYMELSSLRSEDTAVYYCARSRLFFAYWGQGTLVTVSS
VL: DIQMTQSPKSLSASVGDRVTITCRASQDVRTALDWYQQKPGQSPKLLIYSASYRYSGVPSRFSGSGSGTDFTLTISSLQPEDFATYYCQQQYTTPYTFGQGTKLEIKR
notes: Humanized variant with G80A in HC CDR2 (already in the entry), human IgG1 / kappa
B4 returned a concentration giving a half-maximal response (EC50) in assay [3] of 4 ng/mL.

B5: Anti-C1s antibody hz2-8 (H1L2 G80A/T82A) (antibody, V domains shown)
VH: QVQLVQSGAEVKKPGASVKVSCKASGFNIKEYYMHWVRQAPEQGLEWMGWIDPENADAIYAQKFQGRVTITADTSTNTAYMELSSLRSEDTAVYYCARSRLFFAYWGQGTLVTVSS
VL: DIQMTQSPKSLSASVGDRVTITCRASQDVRTALDWYQQKPGQSPKLLIYSASYRYSGVPSRFSGSGSGTDFTLTISSLQPEDFATYYCQQQYTTPYTFGQGTKLEIKR
notes: Humanized variant with G80A and T82A in HC CDR2 (already in the entry), human IgG1 / kappa
For the molecule B5, a half-maximal response in assay [3] (EC50) required 5 ng/mL. Also, the binding result in assay [2] was “no binding (tested: 1000 ng/ml (Log 3))”.
